Measurements taken from PMC10060375, “Self assembling nanoparticle enzyme clusters provide access to substrate channeling in multienzymatic cascades” (Nature Communications, 2023).

Tests used:
[1] = substrate: O=C(O)[C@@H](CO)OP(=O)(O)O; assay: initial rates, plate reader, Michaelis-Menten fit; type: biochemical, Escherichia coli; conditions: free enzyme, 30 °C, substrate inferred from pathway
From the text: initial rates, plate reader, Michaelis-Menten fit on Enolase (Eno)

purified protein = substrate: O=C[C@H](O)COP(=O)(O)O; assay: purified protein; conditions: free enzyme, 30 °C, cosubstrates saturating, varied substrate inferred from pathway
[2] = substrate: O=C(CO)COP(=O)(O)O; assay: initial rates, plate reader, Michaelis-Menten fit; type: biochemical, Escherichia coli; conditions: free enzyme, 30 °C, forward direction inferred (only PGI and PGK stated as reverse), substrate inferred from pathway
From the text: initial rates, plate reader, Michaelis-Menten fit on Triose phosphate isomerase (TPI)

[3] = substrate: CC(=O)C(=O)O; assay: initial rates, plate reader, Michaelis-Menten fit; type: biochemical, Escherichia coli; conditions: free enzyme, 30 °C, cosubstrate saturating, varied substrate inferred from pathway
From the text: initial rates, plate reader, Michaelis-Menten fit on Lactate dehydrogenase (LDH)

[4] = substrate: O=C(O)[C@H](O)COP(=O)(O)O; assay: initial rates, plate reader, Michaelis-Menten fit; type: biochemical, Escherichia coli; conditions: free enzyme, 30 °C, forward direction
From the text: initial rates, plate reader, Michaelis-Menten fit on Phosphoglycerate mutase (PGM)

B1: Enolase (Eno) (Escherichia coli K-12) (protein)
chain: SKIVKIIGREIIDSRGNPTVEAEVHLEGGFVGMAAAPSGASTGSREALELRDGDKSRFLGKGVTKAVAAVNGPIAQALIGKDAKDQAGIDKIMIDLDGTENKSKFGANAILAVSLANAKAAAAAKGMPLYEHIAELNGTPGKYSMPVPMMNIINGGEHADNNVDIQEFMIQPVGAKTVKEAIRMGSEVFHHLAKVLKAKGMNTAVGDEGGYAPNLGSNAEALAVIAEAVKAAGYELGKDITLAMDCAASEFYKDGKYVLAGEGNKAFTSEEFTHFLEELTKQYPIVSIEDGLDESDWDGFAYQTKVLGDKIQLVGDDLFVTNTKILKEGIEKGIANSILIKFNQIGSLTETLAAIKMAKDAGYTAVISHRSGETEDATIADLAVGTAAGQIKTGSMSRSDRVAKYNQLIRIEEALGEKAPYNGRKEIKGQA
notes: full length, terminal His6 kept; E. coli BL21(DE3)
**Q.** With B1 as the protein, how does the Km [1] read?
**A.** Its Km is 2.04 ± 0.072 mM.

**Q.** And the Vmax [1]?
**A.** The Vmax was 4.14 µM/min.

**Q.** What about the kcat [1] of the same protein?
**A.** The kcat was 22.9 ± 3 s⁻¹.

**Q.** And the kcat/Km [1]?
**A.** The kcat/Km was 11200 ± 4300 M⁻¹ s⁻¹.

B2: Glyceraldehyde-3-phosphate dehydrogenase (GPD) (Escherichia coli K-12) (protein)
chain: TIKVGINGFGRIGRIVFRAAQKRSDIEIVAINDLLDADYMAYMLKYDSTHGRFDGTVEVKDGHLIVNGKKIRVTAERDPANLKWDEVGVDVVAEATGLFLTDETARKHITAGAKKVVMTGPSKDNTPMFVKGANFDKYAGQDIVSNASCTTNCLAPLAKVINDNFGIIEGLMTTVHATTATQKTVDGPSHKDWRGGRGASQNIIPSSTGAAKAVGKVLPELNGKLTGMAFRVPTPNVSVVDLTVRLEKAATYEQIKAAVKAAAEGEMKGVLGYTEDDVVSTDFNGEVCTSVFDAKAGIALNDNFVKLVSWYDNETGYSNKVLDLIAHISK
**Q.** How did the Km (purified protein) turn out when B2 was run?
**A.** Its Km is 3.494 ± 1.039 mM.

**Q.** What about the Vmax (purified protein) of the same protein?
**A.** The Vmax was 0.6 µM/min.

**Q.** And the kcat (purified protein)?
**A.** Its kcat is 3.2 s⁻¹.

**Q.** What about the kcat/Km (purified protein) of the same protein?
**A.** Its kcat/Km is 920 M⁻¹ s⁻¹.

B3: Triose phosphate isomerase (TPI) (Escherichia coli K-12) (protein)
chain: MRHPLVMGNWKLNGSRHMVHELVSNLRKELAGVAGCAVAIAPPEMYIDMAKREAEGSHIMLGAQNVDLNLSGAFTGETSAAMLKDIGAQYIIIGHSERRTYHKESDELIAKKFAVLKEQGLTPVLCIGETEAENEAGKTEEVCARQIDAVLKTQGAAAFEGAVIAYEPVWAIGTGKSATPAQAQAVHKFIRDHIAKVDANIAEQVIIQYGGSVNASNAAELFAQPDIDGALVGGASLKADAFAVIVKAAEAAKQA
notes: as for B1
**Q.** How did the Km [2] turn out when B3 was run?
**A.** The Km was 1.717 ± 0.236 mM.

**Q.** What about the Vmax [2] of the same protein?
**A.** The Vmax was 34.9 µM/min.

**Q.** What about the kcat [2] of the same protein?
**A.** The kcat was 194 ± 12 s⁻¹.

**Q.** And the kcat/Km [2]?
**A.** Its kcat/Km is 113000 ± 17000 M⁻¹ s⁻¹.

B4: Lactate dehydrogenase (LDH) (Escherichia coli K-12) (protein)
chain: MKLAVYSTKQYDKKYLQQVNESFGFELEFFDFLLTEKTAKTANGCEAVCIFVNDDGSRPVLEELKKHGVKYIALRCAGFNNVDLDAAKELGLKVVRVPAYDPEAVAEHAIGMMMTLNRRIHRAYQRTRDANFSLEGLTGFTMYGKTAGVIGTGKIGVAMLRILKGFGMRLLAFDPYPSAAALELGVEYVDLPTLFSESDVISLHCPLTPENYHLLNEAAFEQMKNGVMIVNTSRGALIDSQAAIEALKNQKIGSLGMDVYENERDLFFEDKSNDVIQDDVFRRLSACHNVLFTGHQAFLTAEALTSISQTTLQNLSNLEKGETCPNELV
notes: full length, terminal His6 kept; E. coli BL21(DE3); EC 1.1.1.28
**Q.** With B4 as the protein, how does the Km [3] read?
**A.** The Km was 31.47 ± 6.901 mM.

**Q.** And the Vmax [3]?
**A.** The Vmax was 14.4 µM/min.

**Q.** What about the kcat [3] of the same protein?
**A.** The kcat was 95.5 ± 10.4 s⁻¹.

**Q.** What about the kcat/Km [3] of the same protein?
**A.** Its kcat/Km is 3040 ± 740 M⁻¹ s⁻¹.

B5: Phosphoglycerate mutase (PGM) (Escherichia coli K-12) (protein)
chain: MLVSKKPMVLVILDGYGYREEQQDNAIFSAKTPVMDALWANRPHTLIDASGLEVGLPDRQMGNSEVGHVNLGAGRIVYQDLTRLDVEIKDRAFFANPVLTGAVDKAKNAGKAVHIMGLLSAGGVHSHEDHIMAMVELAAERGAEKIYLHAFLDGRDTPPRSAESSLKKFEEKFAALGKGRVASIIGRYYAMDRDNRWDRVEKAYDLLTLAQGEFQADTAVAGLQAAYARDENDEFVKATVIRAEGQPDAAMEDGDALIFMNFRADRAREITRAFVNADFDGFARKKVVNVDFVMLTEYAADIKTAVAYPPASLVNTFGEWMAKNDKTQLRISETEKYAHVTFFFNGGVEESFKGEDRILINSPKVATYDLQPEMSSAELTEKLVAAIKSGKYDTIICNYPNGDMVGHTGVMEAAVKAVEALDHCVEEVAKAVESVGGQLLITADHGNAEQMRDPATGQAHTAHTNLPVPLIYVGDKNVKAVEGGKLSDIAPTMLSLMGMEIPQEMTGKPLFIVE
notes: as for B1
**Q.** B5 was tested. Which Km [4] did it give?
**A.** The Km was 3.584 ± 1.138 mM.
